Data as given in the supplement of paper PMC6757056.
± gives the standard deviation of the averaged measurements.

B1: library; a variant is named by its letters at N, in order (parent)
chain: GCUGUCACCGGUGUAUUACCCUAGUGGUCGACCGGUCUGAUGAGUCUNNNNNNAGACGAAACAGC

Experiments:
[1] = variants of: B1; experiment: normalized RNA/DNA level with ligand (relative to sTRSVctl = 100) (log10 (% of sTRSVctl)); ligand: hypoxanthine (xanthine aptamer); higher = less ribozyme self-cleavage, higher mRNA level; details: ligand concentration (+) RNA-Seq: 5 mM, HEK293T, reporter: mCherry (pCS4076), ligand present: yes
How it was run: (§1)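 Total RNA, extracted with EDTA 72 h after HEK293T cells were transfected with 4 µg per 6-well well of reporter-linked ribozyme switch library plasmids, was reverse-transcribed, amplified, barcoded and sequenced. Ligand, if used, was added 1 h before transfection. RNA level was derived from RNA reads divided by DNA reads and normalized to a spiked-in non-cleaving sequence or to the top sequences. This was multiplied by 100 and log10-transformed, with the top set of 25 sequences and a ≥100 DNA read minimum.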

[2] = variants of: B1; experiment: normalized RNA/DNA level without ligand (relative to sTRSVctl = 100) (log10 (% of sTRSVctl)); ligand: hypoxanthine (xanthine aptamer); higher = less ribozyme self-cleavage, higher mRNA level; details: HEK293T, reporter: mCherry (pCS4076), ligand present: no
How it was run: as §1

Row | Variant | normalized RNA/DNA level with ligand (log10) [1] | normalized RNA/DNA level without ligand (log10) [2]
1 | GCUGUCACCGGUGUAUUACCCUAGUGGUCGACCGGUCUGAUGAGUCUUUGGAAAGACGAAACAGC [UUGGAA] | 1.942 ± 0.0068 | 1.771 ± 0.0035
2 | GCUGUCACCGGUGUAUUACCCUAGUGGUCGACCGGUCUGAUGAGUCUCUGCGUAGACGAAACAGC [CUGCGU] | 1.954 ± 0.013 | 1.93 ± 0.021
3 | GCUGUCACCGGUGUAUUACCCUAGUGGUCGACCGGUCUGAUGAGUCUCUGCGGAGACGAAACAGC [CUGCGG] | 1.96 ± 0.1 | 1.902 ± 0.0065
4 | GCUGUCACCGGUGUAUUACCCUAGUGGUCGACCGGUCUGAUGAGUCUCUGCCUAGACGAAACAGC [CUGCCU] | 1.95 ± 0.097 | 1.92 ± 0.036
5 | GCUGUCACCGGUGUAUUACCCUAGUGGUCGACCGGUCUGAUGAGUCUCUGCCGAGACGAAACAGC [CUGCCG] | 1.96 ± 0.082 | 1.8 ± 0.026
6 | GCUGUCACCGGUGUAUUACCCUAGUGGUCGACCGGUCUGAUGAGUCUCUGCCAAGACGAAACAGC [CUGCCA] | 2.03 ± 0.043 | 1.886 ± 0.011
7 | GCUGUCACCGGUGUAUUACCCUAGUGGUCGACCGGUCUGAUGAGUCUCUGCCCAGACGAAACAGC [CUGCCC] | 1.99 ± 0.039 | 1.971 ± 0.0093
8 | GCUGUCACCGGUGUAUUACCCUAGUGGUCGACCGGUCUGAUGAGUCUAUGCCCAGACGAAACAGC [AUGCCC] | 1.97 ± 0.062 | 1.87 ± 0.048
9 | GCUGUCACCGGUGUAUUACCCUAGUGGUCGACCGGUCUGAUGAGUCUAUGCCGAGACGAAACAGC [AUGCCG] | 1.837 ± 0.01 | 1.49 ± 0.089
10 | GCUGUCACCGGUGUAUUACCCUAGUGGUCGACCGGUCUGAUGAGUCUAUGCCUAGACGAAACAGC [AUGCCU] | 1.958 ± 0.0056 | 1.818 ± 0.0027
11 | GCUGUCACCGGUGUAUUACCCUAGUGGUCGACCGGUCUGAUGAGUCUUUGCACAGACGAAACAGC [UUGCAC] | 1.96 ± 0.051 | 1.9 ± 0.038
12 | GCUGUCACCGGUGUAUUACCCUAGUGGUCGACCGGUCUGAUGAGUCUUUGCAGAGACGAAACAGC [UUGCAG] | 1.915 ± 0.017 | 1.79 ± 0.099
13 | GCUGUCACCGGUGUAUUACCCUAGUGGUCGACCGGUCUGAUGAGUCUUUGCAUAGACGAAACAGC [UUGCAU] | 1.98 ± 0.024 | 1.862 ± 0.004
14 | GCUGUCACCGGUGUAUUACCCUAGUGGUCGACCGGUCUGAUGAGUCUAUGCGUAGACGAAACAGC [AUGCGU] | 1.94 ± 0.025 | 1.819 ± 0.016
15 | GCUGUCACCGGUGUAUUACCCUAGUGGUCGACCGGUCUGAUGAGUCUAUGCGCAGACGAAACAGC [AUGCGC] | 1.93 ± 0.051 | 1.73 ± 0.031
16 | GCUGUCACCGGUGUAUUACCCUAGUGGUCGACCGGUCUGAUGAGUCUUUGCUGAGACGAAACAGC [UUGCUG] | 2.009 ± 0.012 | 1.94 ± 0.028
17 | GCUGUCACCGGUGUAUUACCCUAGUGGUCGACCGGUCUGAUGAGUCUUUGCUAAGACGAAACAGC [UUGCUA] | 1.95 ± 0.045 | 1.897 ± 0.0028
18 | GCUGUCACCGGUGUAUUACCCUAGUGGUCGACCGGUCUGAUGAGUCUUUGCUCAGACGAAACAGC [UUGCUC] | 2.061 ± 0.0057 | 1.9913 ± 0.0008
19 | GCUGUCACCGGUGUAUUACCCUAGUGGUCGACCGGUCUGAUGAGUCUGUGCCAAGACGAAACAGC [GUGCCA] | 1.93 ± 0.021 | 1.81 ± 0.035
20 | GCUGUCACCGGUGUAUUACCCUAGUGGUCGACCGGUCUGAUGAGUCUGUGCCCAGACGAAACAGC [GUGCCC] | 1.93 ± 0.027 | 1.82 ± 0.049
21 | GCUGUCACCGGUGUAUUACCCUAGUGGUCGACCGGUCUGAUGAGUCUGUGCCUAGACGAAACAGC [GUGCCU] | 1.98 ± 0.042 | 1.891 ± 0.0069

Row | Variant | normalized RNA/DNA level with ligand (log10) [1] | normalized RNA/DNA level without ligand (log10) [2]
22 | GCUGUCACCGGUGUAUUACCCUAGUGGUCGACCGGUCUGAUGAGUCUCUGGAAAGACGAAACAGC [CUGGAA] | 1.94 ± 0.033 | 1.771 ± 0.013
23 | GCUGUCACCGGUGUAUUACCCUAGUGGUCGACCGGUCUGAUGAGUCUCUGCUAAGACGAAACAGC [CUGCUA] | 1.95 ± 0.052 | 1.77 ± 0.043
24 | GCUGUCACCGGUGUAUUACCCUAGUGGUCGACCGGUCUGAUGAGUCUCUGCUUAGACGAAACAGC [CUGCUU] | 1.962 ± 0.011 | 1.9272 ± 0.0008
25 | GCUGUCACCGGUGUAUUACCCUAGUGGUCGACCGGUCUGAUGAGUCUCUGCUGAGACGAAACAGC [CUGCUG] | 1.92 ± 0.094 | 1.815 ± 0.0021
26 | GCUGUCACCGGUGUAUUACCCUAGUGGUCGACCGGUCUGAUGAGUCUCUGCUCAGACGAAACAGC [CUGCUC] | 1.96 ± 0.063 | 2.01 ± 0.0072
27 | GCUGUCACCGGUGUAUUACCCUAGUGGUCGACCGGUCUGAUGAGUCUUUGCCAAGACGAAACAGC [UUGCCA] | 1.95 ± 0.017 | 1.94 ± 0.028
28 | GCUGUCACCGGUGUAUUACCCUAGUGGUCGACCGGUCUGAUGAGUCUUUGCCUAGACGAAACAGC [UUGCCU] | 2.007 ± 0.018 | 1.99 ± 0.057
29 | GCUGUCACCGGUGUAUUACCCUAGUGGUCGACCGGUCUGAUGAGUCUUUGCCCAGACGAAACAGC [UUGCCC] | 1.99 ± 0.025 | 1.997 ± 0.0042
30 | GCUGUCACCGGUGUAUUACCCUAGUGGUCGACCGGUCUGAUGAGUCUAUGCAUAGACGAAACAGC [AUGCAU] | 1.87 ± 0.032 | 1.76 ± 0.019
31 | GCUGUCACCGGUGUAUUACCCUAGUGGUCGACCGGUCUGAUGAGUCUAUGCUUAGACGAAACAGC [AUGCUU] | 1.93 ± 0.088 | 1.861 ± 0.018
32 | GCUGUCACCGGUGUAUUACCCUAGUGGUCGACCGGUCUGAUGAGUCUAUGCUCAGACGAAACAGC [AUGCUC] | 2.008 ± 0.011 | 1.976 ± 0.013
33 | GCUGUCACCGGUGUAUUACCCUAGUGGUCGACCGGUCUGAUGAGUCUAUGCUGAGACGAAACAGC [AUGCUG] | 1.898 ± 0.0024 | 1.61 ± 0.048
34 | GCUGUCACCGGUGUAUUACCCUAGUGGUCGACCGGUCUGAUGAGUCUUUGCGCAGACGAAACAGC [UUGCGC] | 1.94 ± 0.027 | 1.91 ± 0.02
35 | GCUGUCACCGGUGUAUUACCCUAGUGGUCGACCGGUCUGAUGAGUCUUUGCGAAGACGAAACAGC [UUGCGA] | 1.994 ± 0.015 | 1.88 ± 0.027
36 | GCUGUCACCGGUGUAUUACCCUAGUGGUCGACCGGUCUGAUGAGUCUUUGCGUAGACGAAACAGC [UUGCGU] | 1.97 ± 0.024 | 1.82 ± 0.067
37 | GCUGUCACCGGUGUAUUACCCUAGUGGUCGACCGGUCUGAUGAGUCUCUGCAUAGACGAAACAGC [CUGCAU] | 1.94 ± 0.043 | 1.8 ± 0.074
38 | GCUGUCACCGGUGUAUUACCCUAGUGGUCGACCGGUCUGAUGAGUCUGUGCUCAGACGAAACAGC [GUGCUC] | 1.909 ± 0.011 | 1.85 ± 0.034
39 | GCUGUCACCGGUGUAUUACCCUAGUGGUCGACCGGUCUGAUGAGUCUGUGCUAAGACGAAACAGC [GUGCUA] | 1.93 ± 0.017 | 1.75 ± 0.093
40 | GCUGUCACCGGUGUAUUACCCUAGUGGUCGACCGGUCUGAUGAGUCUGUGCUUAGACGAAACAGC [GUGCUU] | 1.96 ± 0.027 | 1.89 ± 0.019
41 | GCUGUCACCGGUGUAUUACCCUAGUGGUCGACCGGUCUGAUGAGUCUGUGCGAAGACGAAACAGC [GUGCGA] | 1.918 ± 0.0038 | 1.58 ± 0.018
42 | GCUGUCACCGGUGUAUUACCCUAGUGGUCGACCGGUCUGAUGAGUCUGUGCGCAGACGAAACAGC [GUGCGC] | 1.9 ± 0.023 | 1.74 ± 0.098
